Measured values as given in patent publication US20230159645A1 (MERUS N V, published 2023).

Key:
human TGF-βRII [1] = target: T1, human TGF-βRII (human, UniProt P37173 23-567); test: cell-based or functional assay
T1 chain: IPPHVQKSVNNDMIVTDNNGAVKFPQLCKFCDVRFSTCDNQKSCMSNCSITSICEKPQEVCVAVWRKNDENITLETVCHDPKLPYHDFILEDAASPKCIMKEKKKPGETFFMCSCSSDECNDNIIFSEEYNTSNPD

human TGF-βRII [2] = target: T1, human TGF-βRII; test: cell-based or functional assay

Fold difference pSMAD PD-1^null vs PD-1^+ (human TGF-βRII [1]): 1.3 fold
HEK-BLUE-PD-1 TGF-β Reporter Assay, HEK-Blue TGF-β cells (human TGF-βRII [2]): 0.806
HEK-BLUE-PD-1 TGF-β Reporter Assay, HEK-Blue TGF-β-PD-1+ cells (human TGF-βRII [2]): 0.655
B1: Reference TGF-βRII antibody TGF1 analog (antibody, human IgG1, kappa, V domains shown)
VH: QLQVQESGPGLVKPSETLSLTCTVSGGSISNSYFSWGWIRQPPGKGLEWIGSFYYGEKTYYNPSLKSRATISIDTSKSQFSLKLSSVTAADTAVYYCPRGPTMIRGVIDSWGQGTLVTVSS
VL: EIVLTQSPATLSLSPGERATLSCRASQSVRSYLAWYQQKPGQAPRLLIYDASNRATGIPARFSGSGSGTDFTLTISSLEPEDFAVYYCQQRSNWPPTFGQGTKVEIKR
